# Numbering of substitutions follows the chain as printed. In names and notes the source's numbering stands.
# B1: Gemin5 TPR-like domain (residues 807-1097), wild type (domain or fragment)
# chain: TPVSSGFEKSKVTINNKVILLKKEPPKEKPETLIKKRKARSLLPLSTSLDHRSKEELHQDCLVLATAKHSRELNEDVSADVEERFHLGLFTDRATLYRMIDIEGKGHLENGHPELFHQLMLWKGDLKGVLQTAAERGELTDNLVAMAPAAGYHVWLWAVEAFAKQLCFQDQYVKAASHLLSIHKVYEAVELLKSNHFYREAIAIAKARLRPEDPVLKDLYLSWGTVLERDGHYAVAAKCYLGATCAYDAAKVLAKKGDAASLRTAAELAAIVGEDELSASLALRCAQELLL
# B2: Gemin5 TPR-like domain (residues 807-1097) A951E (domain or fragment)
# chain: B1 chain with A145E
# B3: Gemin5, full-length endogenous protein (natural protein)
# chain: MGQEPRTLPPSPNWYCARCSDAVPGGLFGFAARTSVFLVRVGPGAGESPGTPPFRVIGELVGHTERVSGFTFSHHPGQYNLCATSSDDGTVKIWDVETKTVVTEHALHQHTISTLHWSPRVKDLIVSGDEKGVVFCYWFNRNDSQHLFIEPRTIFCLTCSPHHEDLVAIGYKDGIVVIIDISKKGEVIHRLRGHDDEIHSIAWCPLPGEDCLSINQEETSEEAEITNGNAVAQAPVTKGCYLATGSKDQTIRIWSCSRGRGVMILKLPFLKRRGGGIDPTVKERLWLTLHWPSNQPTQLVSSCFGGELLQWDLTQSWRRKYTLFSASSEGQNHSRIVFNLCPLQTEDDKQLLLSTSMDRDVKCWDIATLECSWTLPSLGGFAYSLAFSSVDIGSLAIGVGDGMIRVWNTLSIKNNYDVKNFWQGVKSKVTALCWHPTKEGCLAFGTDDGKVGLYDTYSNKPPQISSTYHKKTVYTLAWGPPVPPMSLGGEGDRPSLALYSCGGEGIVLQHNPWKLSGEAFDINKLIRDTNSIKYKLPVHTEISWKADGKIMALGNEDGSIEIFQIPNLKLICTIQQHHKLVNTISWHHEHGSQPELSYLMASGSNNAVIYVHNLKTVIESSPESPVTITEPYRTLSGHTAKITSVAWSPHHDGRLVSASYDGTAQVWDALREEPLCNFRGHRGRLLCVAWSPLDPDCIYSGADDFCVHKWLTSMQDHSRPPQGKKSIELEKKRLSQPKAKPKKKKKPTLRTPVKLESIDGNEEESMKENSGPVENGVSDQEGEEQAREPELPCGLAPAVSREPVICTPVSSGFEKSKVTINNKVILLKKEPPKEKPETLIKKRKARSLLPLSTSLDHRSKEELHQDCLVLATAKHSRELNEDVSADVEERFHLGLFTDRATLYRMIDIEGKGHLENGHPELFHQLMLWKGDLKGVLQTAAERGELTDNLVAMAPAAGYHVWLWAVEAFAKQLCFQDQYVKAASHLLSIHKVYEAVELLKSNHFYREAIAIAKARLRPEDPVLKDLYLSWGTVLERDGHYAVAAKCYLGATCAYDAAKVLAKKGDAASLRTAAELAAIVGEDELSASLALRCAQELLLANNWVGAQEALQLHESLQGQRLVFCLLELLSRHLEEKQLSEGKSSSSYHTWNTGTEGPFVERVTAVWKSIFSLDTPEQYQEAFQKLQNIKYPSATNNTPAKQLLLHICHDLTLAVLSQQMASWDEAVQALLRAVVRSYDSGSFTIMQEVYSAFLPDGCDHLRDKLGDHQSPATPAFKSLEAFFLYGRLYEFWWSLSRPCPNSSVWVRAGHRTLSVEPSQQLDTASTEETDPETSQPEPNRPSELDLRLTEEGERMLSTFKELFSEKHASLQNSQRTVAEVQETLAEMIRQHQKSQLCKSTANGPDKNEPEVEAEQPLCSSQSQCKEEKNEPLSLPELTKRLTEANQRMAKFPESIKAWPFPDVLECCLVLLLIRSHFPGCLAQEMQQQAQELLQKYGNTKTYRRHCQTFCM
# B4: dsDNA H1-24-s/H1-24-as (dsDNA)
# DNA 1: AATTCCCCAAATTCCAGTGTCTGGGTAAG
# DNA 2: TCGACTTACCCAGACACTGGAATTTGGGG
# Legend:
# [1] = molecular target: the molecule itself; test: SEC-MALS
# [2] = molecular target: the molecule itself; test: […]
# [3] = molecular target: T1, Gemin5 cleavage fragment p85, wild type, with C-terminal TAP tag (human, UniProt Q8TEQ6 845-1508); test: co-IP
# T1 sequence: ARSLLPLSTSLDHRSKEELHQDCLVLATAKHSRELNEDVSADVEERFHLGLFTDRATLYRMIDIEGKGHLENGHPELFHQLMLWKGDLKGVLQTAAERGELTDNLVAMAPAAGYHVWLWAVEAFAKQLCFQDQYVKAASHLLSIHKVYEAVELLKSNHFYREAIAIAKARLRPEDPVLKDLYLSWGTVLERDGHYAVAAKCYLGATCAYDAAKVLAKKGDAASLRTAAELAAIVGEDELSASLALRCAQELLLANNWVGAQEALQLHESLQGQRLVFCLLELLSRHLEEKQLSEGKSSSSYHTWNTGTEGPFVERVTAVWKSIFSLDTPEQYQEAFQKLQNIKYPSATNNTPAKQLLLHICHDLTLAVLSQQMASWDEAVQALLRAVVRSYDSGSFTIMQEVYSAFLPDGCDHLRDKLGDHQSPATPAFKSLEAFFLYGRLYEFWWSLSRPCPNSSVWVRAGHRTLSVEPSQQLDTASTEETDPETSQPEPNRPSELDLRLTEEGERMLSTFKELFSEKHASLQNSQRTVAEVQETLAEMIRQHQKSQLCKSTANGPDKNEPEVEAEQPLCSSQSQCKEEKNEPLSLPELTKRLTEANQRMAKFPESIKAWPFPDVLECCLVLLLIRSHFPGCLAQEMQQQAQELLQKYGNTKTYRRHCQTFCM
# [4] = molecular target: G5-TPR (Gemin5 TPR-like dimerization domain) (Homo sapiens, UniProt Q8TEQ6 807-1097); test: EMSA
binder,measurement,setting,value
B1,stoichiometry N,[1],2
B2,stoichiometry N,[2],2
B3,fold recruitment against p85-A951E,[3],10 fold
AATTCCCCAAATTCCAGTGTCTGGGTAAG (ssDNA) [ssDNA H1-24-s (29 nt)],binding result,[4],no binding
B4,binding result,[4],no binding

# Reference: PMC6954437 (Nucleic Acids Research, 2019)
